Test results as given in patent US11896644B2, “Inhibition of beta-arrestin oligomerization in tauopathy” (UNIVERSITY OF SOUTH FLORIDA, priority 2020, dated 2024).

Molecular target: T1, HA-p62 and GFP-p62 interaction (Homo sapiens, UniProt Q13501)
T1 construct: #38277; host or cells: Hela-V5-tau cells
Experiment: Co-IP of HA-p62 and GFP-p62 interaction
Assay type: cell-based
Conditions: Hela-V5-tau cells
Text: FIGS. 12A to 12E show β-arrestin2 interacts with p62, and β-arrestin2 oligomerization inhibits p62 self-interaction. FIG. 12A contains representative confocal images of mCherry and EGFP in Hela-V5-tau cells transfected with mCherry-GFP-p62 together with control vector, β-arrestin2-flag, or β-arrestin2 ΔIP6N-flag (Scale bar=10 μm). […] The box and whisker plots show all data points, and the box plots show all data points, the median and IQR, and the minimal and maximal values. FIG. 12C contains representative immunoblots of indicated proteins from Hela-V5-tau cells transfected GFP or GFP-β-arrestin2 with/without HA-p62. Note that β-arrestin2 is present in HA immune complexes only in the presence of HA-p62, whereas β-arrestin2 is not detected in control IgG beads. […] Lysates were subjected to IP for HA. […] FIG. 12F show quantification of flag/p62 PLA puncta/cell (N=4 independent experiments, #P<0.0001).
Brain homogenates and cultured cells were lysed with RIPA buffer (50 mM Tris pH 7.4, 150 mM NaCl, 2 mM ethlenediaminetetraacetic acid, 1% NP-40, 0.1% sodium dodecyl sulfate) plus protease and phosphatase inhibitors. Proteins were extracted and centrifuged at 15000 rpm for 15 min at 4° C., and RIPA insoluble fractions were lysed with 5% SDS with 1% β-mercaptoethanol, 50 mM Tris-HCl pH 6.8, 12.5 mM EDTA, 10% glycerol, and 0.02% bromophenol blue. […]

B1: β-arrestin2 ΔIP6N: β-arrestin2 N-terminal domain mutant (K158A, K161A, and R162A), incapable of forming oligomers; dominant negative (protein, UniProt P32121 1-409, looked up, variant K158A K161A R162A)
Beta-arrestin-2: MGEKPGTRVFKKSSPNCKLTVYLGKRDFVDHLDKVDPVDGVVLVDPDYLKDRKVFVTLTCAFRYGREDLDVLGLSFRKDLFIATYQAFPPVPNPPRPPTRLQDRLLRKLGQHAHPFFFTIPQNLPCSVTLQPGPEDTGKACGVDFEIRAFCAKSLEEASHAANSVRLVIRKVQFAPEKPGPQPSAETTRHFLMSDRSLHLEASLDKELYYHGEPLNVNVHVTNNSTKTVKKIKVSVRQYADICLFSTAQYKCPVAQLEQDDQVSPSSTFCKVYTITPLLSDNREKRGLALDGKLKHEDTNLASSTIVKEGANKEVLGILVSYRVKVKLVVSRGGDVSVELPFVLMHPKPHDHIPLPRPQSAAPETDVPVDTNLIEFDTNYATDDDIVFEDFARLRLKGMKDDDYDDQLC
modifications: GFP or YFP tag
notes: dominant negative
With B1 the “HA-p62 and GFP-p62 interaction by co-IP” value was “neither β-arrestin2 ΔIP6C nor β-arrestin2 ΔIP6N alone were capable of reducing HA-p62 and GFP-p62 interaction”.
